Source: the supplement of paper PMC10065799, “High-throughput profiling of sequence recognition by tyrosine kinases and SH2 domains using bacterial peptide display” (eLife, 2023)

How the values were obtained:
[1] = target: FGFR1 (UniProt P11362); assay: phosphorylation enrichment, bacterial display (enrichment ratio); higher = better substrate or ligand; peptides without Tyr show the background
[2] = system: AncSZ; assay: as above
[3] = system: c-Src; assay: as above
[4] = target: Fes (UniProt P07332); assay: as above
[5] = target: Jak2 (UniProt O60674); assay: as above
[6] = target: EPHB2 (UniProt P29323); assay: as above
[7] = target: Fyn (UniProt P06241); assay: as above
[8] = system: Fer (mouse); assay: as above
[9] = system: c-Abl (mouse); assay: as above
[10] = target: EPHB1 (UniProt P54762); assay: as above
[11] = target: Hck (UniProt P08631); assay: as above
[12] = target: MERTK (UniProt Q12866); assay: as above
[13] = target: FGFR3 (UniProt P22607); assay: as above
[14] = target: Grb2 SH2 (UniProt P62993); assay: SH2 binding enrichment of the phosphorylated peptide, bacterial display (enrichment ratio); higher = better substrate or ligand; peptides without Tyr show the background
[15] = target: SHP2-C SH2; assay: as above
[16] = target: c-Src SH2; assay: as above
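Throughout, for SH2 binding enrichment of the phosphorylated peptide, bacterial display: peptide library displayed on the E. coli surface as eCPX fusions, selected cells deep-sequenced, score is each peptide's frequency after selection divided by its frequency in the input.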
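Throughout, for phosphorylation enrichment, bacterial display: 11-residue human phosphosite peptides and single-mutation variants displayed on the E. coli surface, counted by deep sequencing, each peptide's frequency after selection divided by its frequency in the unselected input library; frequency after pTyr selection over input frequency; kinase dosed for 20-30% of maximal phosphorylation in three min.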

Hck, sequence (P08631 whole entry, looked up): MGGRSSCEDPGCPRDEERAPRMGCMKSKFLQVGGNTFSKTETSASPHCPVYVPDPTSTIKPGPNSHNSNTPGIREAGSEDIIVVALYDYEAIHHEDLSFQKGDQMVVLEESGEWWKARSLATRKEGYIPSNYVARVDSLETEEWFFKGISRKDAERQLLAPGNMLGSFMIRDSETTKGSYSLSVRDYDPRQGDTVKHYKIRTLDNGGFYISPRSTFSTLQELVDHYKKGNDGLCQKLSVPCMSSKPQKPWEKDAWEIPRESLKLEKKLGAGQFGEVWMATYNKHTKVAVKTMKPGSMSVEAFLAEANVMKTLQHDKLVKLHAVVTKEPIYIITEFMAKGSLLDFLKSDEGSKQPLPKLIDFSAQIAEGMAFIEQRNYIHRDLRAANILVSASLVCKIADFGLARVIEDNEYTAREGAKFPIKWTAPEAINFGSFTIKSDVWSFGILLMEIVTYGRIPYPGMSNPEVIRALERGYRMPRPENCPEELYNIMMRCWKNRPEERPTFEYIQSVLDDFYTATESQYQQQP
EPHB2, sequence (P29323 whole entry, looked up): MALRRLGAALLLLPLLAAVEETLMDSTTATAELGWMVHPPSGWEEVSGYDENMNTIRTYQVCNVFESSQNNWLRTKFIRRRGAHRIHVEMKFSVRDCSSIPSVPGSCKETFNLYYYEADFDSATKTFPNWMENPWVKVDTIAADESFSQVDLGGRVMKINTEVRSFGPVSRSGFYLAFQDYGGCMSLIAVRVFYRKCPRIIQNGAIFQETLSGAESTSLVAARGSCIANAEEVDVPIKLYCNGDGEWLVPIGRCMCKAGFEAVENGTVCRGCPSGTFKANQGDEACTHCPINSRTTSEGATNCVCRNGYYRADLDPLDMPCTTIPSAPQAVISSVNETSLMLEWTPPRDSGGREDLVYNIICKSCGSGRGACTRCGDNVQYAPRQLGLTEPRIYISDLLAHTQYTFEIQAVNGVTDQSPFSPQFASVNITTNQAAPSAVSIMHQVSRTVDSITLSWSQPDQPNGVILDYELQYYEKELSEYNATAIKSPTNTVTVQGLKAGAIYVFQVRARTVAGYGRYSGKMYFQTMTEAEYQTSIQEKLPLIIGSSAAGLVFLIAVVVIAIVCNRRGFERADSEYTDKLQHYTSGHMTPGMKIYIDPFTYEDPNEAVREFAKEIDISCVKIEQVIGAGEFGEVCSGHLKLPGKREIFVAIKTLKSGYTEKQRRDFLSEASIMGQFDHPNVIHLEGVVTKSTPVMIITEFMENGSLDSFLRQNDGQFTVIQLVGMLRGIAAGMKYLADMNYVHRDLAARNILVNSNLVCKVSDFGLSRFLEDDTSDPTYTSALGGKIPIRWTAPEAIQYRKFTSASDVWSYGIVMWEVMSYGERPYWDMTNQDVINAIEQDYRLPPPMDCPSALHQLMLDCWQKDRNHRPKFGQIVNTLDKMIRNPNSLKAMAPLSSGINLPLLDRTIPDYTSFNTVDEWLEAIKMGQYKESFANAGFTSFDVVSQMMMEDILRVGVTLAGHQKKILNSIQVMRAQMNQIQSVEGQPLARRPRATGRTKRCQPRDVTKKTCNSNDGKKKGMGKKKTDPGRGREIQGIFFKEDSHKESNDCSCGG
FGFR1, sequence (P11362 whole entry, looked up): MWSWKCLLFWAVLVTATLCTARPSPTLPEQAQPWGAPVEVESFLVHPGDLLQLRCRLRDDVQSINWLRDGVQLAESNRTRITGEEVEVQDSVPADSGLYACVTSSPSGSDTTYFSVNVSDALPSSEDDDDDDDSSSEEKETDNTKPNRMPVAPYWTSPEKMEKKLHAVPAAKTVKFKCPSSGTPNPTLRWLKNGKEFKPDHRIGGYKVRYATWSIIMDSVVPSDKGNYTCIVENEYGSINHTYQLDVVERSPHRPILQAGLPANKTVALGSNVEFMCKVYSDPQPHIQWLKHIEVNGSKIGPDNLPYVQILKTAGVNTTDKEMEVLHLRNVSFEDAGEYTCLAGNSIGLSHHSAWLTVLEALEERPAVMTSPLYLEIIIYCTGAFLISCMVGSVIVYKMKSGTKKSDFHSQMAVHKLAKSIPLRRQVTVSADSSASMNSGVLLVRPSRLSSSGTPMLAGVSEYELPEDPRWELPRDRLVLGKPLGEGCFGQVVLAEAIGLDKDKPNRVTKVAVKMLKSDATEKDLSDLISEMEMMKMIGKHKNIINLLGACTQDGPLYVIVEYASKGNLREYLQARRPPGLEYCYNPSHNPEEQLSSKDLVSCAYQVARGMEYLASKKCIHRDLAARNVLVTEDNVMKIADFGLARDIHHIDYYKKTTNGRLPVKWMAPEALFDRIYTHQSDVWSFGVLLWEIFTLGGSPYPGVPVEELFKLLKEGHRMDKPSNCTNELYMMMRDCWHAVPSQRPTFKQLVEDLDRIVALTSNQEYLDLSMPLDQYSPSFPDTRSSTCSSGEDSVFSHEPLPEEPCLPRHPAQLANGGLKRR
MERTK, sequence (Q12866 whole entry, looked up): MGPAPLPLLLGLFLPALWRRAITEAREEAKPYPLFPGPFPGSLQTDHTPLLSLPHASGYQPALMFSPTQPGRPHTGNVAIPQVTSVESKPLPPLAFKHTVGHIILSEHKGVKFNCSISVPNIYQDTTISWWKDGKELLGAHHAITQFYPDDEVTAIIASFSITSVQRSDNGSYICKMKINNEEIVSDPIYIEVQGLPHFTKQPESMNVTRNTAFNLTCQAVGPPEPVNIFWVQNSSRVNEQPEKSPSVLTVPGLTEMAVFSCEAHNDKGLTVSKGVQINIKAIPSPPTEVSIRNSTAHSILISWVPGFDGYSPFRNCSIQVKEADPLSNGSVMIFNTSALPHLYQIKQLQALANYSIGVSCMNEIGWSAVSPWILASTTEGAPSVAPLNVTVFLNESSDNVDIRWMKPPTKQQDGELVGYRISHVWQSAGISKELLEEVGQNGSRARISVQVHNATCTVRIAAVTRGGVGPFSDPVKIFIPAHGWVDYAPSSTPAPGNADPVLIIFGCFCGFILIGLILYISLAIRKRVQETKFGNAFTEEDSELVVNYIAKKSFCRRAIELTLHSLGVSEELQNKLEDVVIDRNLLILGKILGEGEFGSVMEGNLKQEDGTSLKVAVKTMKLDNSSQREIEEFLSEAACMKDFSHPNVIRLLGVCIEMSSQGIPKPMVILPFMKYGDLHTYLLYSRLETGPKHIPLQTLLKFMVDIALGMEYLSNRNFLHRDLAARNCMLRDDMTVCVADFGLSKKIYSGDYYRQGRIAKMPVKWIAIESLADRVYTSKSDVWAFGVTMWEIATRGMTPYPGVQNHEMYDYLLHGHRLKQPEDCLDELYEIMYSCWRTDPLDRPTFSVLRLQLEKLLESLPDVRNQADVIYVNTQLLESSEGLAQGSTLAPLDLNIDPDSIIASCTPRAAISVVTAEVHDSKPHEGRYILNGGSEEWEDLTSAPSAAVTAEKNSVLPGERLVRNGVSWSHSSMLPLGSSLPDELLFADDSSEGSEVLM
FGFR3, sequence (P22607 whole entry, looked up): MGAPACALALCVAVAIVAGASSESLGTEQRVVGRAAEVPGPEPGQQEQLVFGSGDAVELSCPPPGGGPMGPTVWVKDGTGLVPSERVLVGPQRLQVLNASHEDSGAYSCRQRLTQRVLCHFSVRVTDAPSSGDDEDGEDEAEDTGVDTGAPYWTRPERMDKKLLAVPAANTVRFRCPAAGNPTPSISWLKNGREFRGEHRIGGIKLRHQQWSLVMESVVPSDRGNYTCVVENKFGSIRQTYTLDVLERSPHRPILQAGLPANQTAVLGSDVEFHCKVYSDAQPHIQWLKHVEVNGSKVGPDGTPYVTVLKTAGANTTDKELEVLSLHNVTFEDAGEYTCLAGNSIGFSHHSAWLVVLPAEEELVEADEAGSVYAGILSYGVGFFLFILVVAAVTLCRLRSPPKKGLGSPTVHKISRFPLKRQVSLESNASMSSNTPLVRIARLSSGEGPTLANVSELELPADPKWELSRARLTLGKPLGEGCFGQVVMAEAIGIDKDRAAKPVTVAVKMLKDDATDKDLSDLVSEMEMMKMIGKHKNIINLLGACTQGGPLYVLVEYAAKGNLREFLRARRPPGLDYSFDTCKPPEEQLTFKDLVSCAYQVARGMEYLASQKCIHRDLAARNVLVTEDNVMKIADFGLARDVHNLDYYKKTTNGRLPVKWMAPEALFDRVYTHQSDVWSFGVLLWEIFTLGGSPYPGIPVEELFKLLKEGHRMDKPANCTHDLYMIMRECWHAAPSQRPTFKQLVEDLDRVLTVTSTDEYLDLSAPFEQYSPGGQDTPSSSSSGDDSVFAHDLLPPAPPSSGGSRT
Fyn, sequence (P06241 whole entry, looked up): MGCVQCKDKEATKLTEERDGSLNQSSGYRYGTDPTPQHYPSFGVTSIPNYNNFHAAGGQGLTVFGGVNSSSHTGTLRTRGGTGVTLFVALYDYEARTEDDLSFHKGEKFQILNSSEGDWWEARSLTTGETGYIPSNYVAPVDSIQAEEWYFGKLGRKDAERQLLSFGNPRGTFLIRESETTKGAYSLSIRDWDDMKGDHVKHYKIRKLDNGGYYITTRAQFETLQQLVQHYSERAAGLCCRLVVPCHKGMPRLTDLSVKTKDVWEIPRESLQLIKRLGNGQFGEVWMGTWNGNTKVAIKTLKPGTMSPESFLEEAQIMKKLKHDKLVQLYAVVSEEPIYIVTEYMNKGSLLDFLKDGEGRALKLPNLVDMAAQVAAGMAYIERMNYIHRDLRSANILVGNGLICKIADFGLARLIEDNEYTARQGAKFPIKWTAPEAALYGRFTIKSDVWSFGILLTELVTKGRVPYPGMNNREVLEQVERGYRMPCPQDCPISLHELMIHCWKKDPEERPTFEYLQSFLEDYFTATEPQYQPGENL
Grb2 SH2, sequence (P62993 whole entry, looked up): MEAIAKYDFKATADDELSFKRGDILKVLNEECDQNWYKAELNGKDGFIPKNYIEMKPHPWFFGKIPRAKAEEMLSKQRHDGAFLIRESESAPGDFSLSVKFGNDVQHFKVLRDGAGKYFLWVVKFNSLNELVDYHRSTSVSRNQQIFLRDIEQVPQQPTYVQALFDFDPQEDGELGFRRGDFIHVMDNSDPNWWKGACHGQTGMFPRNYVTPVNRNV

Row | Sequence | phosphorylation enrichment [1] | phosphorylation enrichment [2] | phosphorylation enrichment [3] | phosphorylation enrichment [4] | phosphorylation enrichment [5] | phosphorylation enrichment [6] | phosphorylation enrichment [7] | phosphorylation enrichment [8] | phosphorylation enrichment [9] | phosphorylation enrichment [10] | phosphorylation enrichment [11] | phosphorylation enrichment [12] | phosphorylation enrichment [13] | SH2 binding enrichment [14] | SH2 binding enrichment [15] | SH2 binding enrichment [16]
1 | SSSPTYPDLPF [GLI3_Y168] | 0.784 | 0.839 | 0.565 | 0.933 | 0.91 | 0.543 | 0.568 | 0.745 | 0.967 | 0.634 | 0.59 | 0.654 | 0.627 | 0.859 | 0.673 | 0.504
2 | INSLKYAFNIS [EIF2B5_Y583_YF] | 0.451 | 0.722 | 0.379 | 0.818 | 0.809 | 0.475 | 0.311 | 0.385 | 0.632 | 0.438 | 0.424 | 0.349 | 0.567 | 0.944 | 0.833 | 0.44
3 | PSSRDYKHNIK [PIGN_Y227] | 0.448 | 0.442 | 0.417 | 0.572 | 0.481 | 0.47 | 0.456 | 0.569 | 0.471 | 0.321 | 0.474 | 0.463 | 0.587 | 0.895 | 0.774 | 0.495
4 | SESSFYKSLNL [NGEF_Y289_A286S_YF] | 0.477 | 1.06 | 0.508 | 1.25 | 1.06 | 0.516 | 0.479 | 0.562 | 0.853 | 0.598 | 0.521 | 0.468 | 0.816 | 0.775 | 0.495 | 0.48
5 | LGSWTYPKTVS [ROS1_Y144_T145P] | 0.842 | 0.85 | 0.415 | 1.12 | 0.734 | 0.432 | 0.741 | 0.453 | 0.732 | 0.402 | 0.577 | 0.664 | 0.604 | 0.813 | 0.805 | 0.496
6 | GPKFGYDEIDN [ACOX1_Y232] | 0.42 | 0.993 | 0.453 | 0.874 | 0.765 | 0.688 | 0.406 | 0.344 | 0.531 | 0.44 | 0.359 | 0.381 | 0.527 | 0.845 | 0.658 | 16.7
7 | EPAVLYNLKER [MYH7_Y103_D107E] | 0.506 | 0.804 | 0.694 | 0.854 | 0.74 | 0.547 | 0.511 | 0.332 | 0.687 | 0.354 | 0.72 | 0.388 | 0.524 | 0.773 | 0.653 | 0.486
8 | FVHDNYVIRRT [CPS1_Y1450] | 0.4 | 0.772 | 0.536 | 0.739 | 0.714 | 0.499 | 0.446 | 0.435 | 0.418 | 0.376 | 0.489 | 0.391 | 0.467 | 0.655 | 0.517 | 0.416
9 | KPPFSYNALIM [FOXG1_Y186] | 0.455 | 0.641 | 0.512 | 0.724 | 0.632 | 0.488 | 0.438 | 0.461 | 0.57 | 0.424 | 0.472 | 0.525 | 0.628 | 0.726 | 0.497 | 0.403
10 | ATVRPYRPYII [LRP5_Y1528_A1525V] | 0.53 | 0.777 | 0.586 | 0.715 | 0.564 | 0.552 | 0.518 | 0.462 | 0.677 | 0.499 | 0.43 | 0.484 | 0.591 | 0.765 | 0.657 | 0.482
11 | NNIDYYKKTTN [FGFR2_Y657] | 0.456 | 0.616 | 0.492 | 0.703 | 0.524 | 0.527 | 0.633 | 0.6 | 0.517 | 0.543 | 0.764 | 0.437 | 0.495 | 1.02 | 0.603 | 0.459
12 | PPGRSYSPCDY [TNS1_Y793_Y796C] | 0.73 | 1.19 | 0.581 | 1.16 | 1.02 | 0.83 | 0.922 | 0.602 | 0.832 | 0.512 | 0.586 | 0.638 | 0.799 | 1 | 0.772 | 1.26
13 | VAMDDYLKNVM [LRRK2_Y707] | 0.493 | 0.903 | 0.409 | 0.956 | 0.831 | 0.409 | 0.449 | 0.333 | 0.659 | 0.517 | 0.418 | 0.51 | 0.59 | 1.01 | 0.648 | 0.418
14 | GIVEDYRPPVY [ACVRL1_Y421_F425V] | 0.458 | 0.817 | 0.437 | 0.953 | 0.77 | 0.547 | 0.406 | 0.479 | 0.539 | 0.524 | 0.505 | 0.403 | 0.53 | 0.825 | 0.524 | 0.47
15 | KKLHKYNTQFQ [PIK3R1_Y452_E451K] | 0.496 | 0.577 | 0.416 | 0.909 | 1.55 | 0.46 | 0.355 | 0.503 | 1.06 | 0.511 | 0.425 | 0.487 | 1.13 | 1.42 | 1.67 | 1.24
16 | PLDAEYFTLQI [TP53_Y327_G325A] | 8.68 | 2.57 | 4.2 | 1.63 | 3.1 | 0.826 | 2.47 | 0.883 | 1.29 | 0.876 | 1.57 | 0.603 | 6.59 | 0.779 | 0.738 | 0.43
17 | CTTIHYNYMCT [TP53_Y234_N239T] | 0.899 | 0.936 | 0.5 | 1 | 0.657 | 1.02 | 0.569 | 0.915 | 0.656 | 2.71 | 0.545 | 0.784 | 0.817 | 1.42 | 2.78 | 4.38

Row | Sequence | phosphorylation enrichment [1] | phosphorylation enrichment [2] | phosphorylation enrichment [3] | phosphorylation enrichment [4] | phosphorylation enrichment [5] | phosphorylation enrichment [6] | phosphorylation enrichment [7] | phosphorylation enrichment [8] | phosphorylation enrichment [9] | phosphorylation enrichment [10] | phosphorylation enrichment [11] | phosphorylation enrichment [12] | phosphorylation enrichment [13] | SH2 binding enrichment [14] | SH2 binding enrichment [15] | SH2 binding enrichment [16]
18 | KELAPYDENCF [RPS19_Y48_W52C] | 0.573 | 1.32 | 0.612 | 1.48 | 1.31 | 0.696 | 0.583 | 0.632 | 0.997 | 0.628 | 0.57 | 0.487 | 0.902 | 1.24 | 0.803 | 1.32
19 | HNQDDYSFPSR [LDLR_Y845_G844D_YF] | 0.539 | 5.49 | 0.633 | 0.77 | 0.536 | 2.14 | 0.737 | 0.573 | 0.545 | 1.3 | 0.586 | 0.553 | 0.75 | 0.723 | 0.8 | 0.678
20 | LDYNEYFRYLN [HPRT1_Y198_D201Y] | 3.33 | 1.79 | 2.04 | 1.23 | 7.21 | 1.39 | 1.45 | 0.635 | 1.81 | 0.858 | 1.41 | 0.573 | 2.1 | 2.06 | 1.18 | 0.765
21 | KEDSVYGSQSV [NFKB2_Y868_A867V] | 0.353 | 0.829 | 1.35 | 0.946 | 0.794 | 0.41 | 1.43 | 0.498 | 0.608 | 0.449 | 0.984 | 0.399 | 0.557 | 1.03 | 0.554 | 0.389
22 | QAKRKYQEVSK [FES_Y156_A159V] | 0.424 | 0.463 | 0.193 | 0.257 | 0.227 | 0.443 | 0.365 | 0.233 | 0.326 | 0.231 | 0.373 | 0.311 | 0.37 | 0.957 | 0.448 | 0.616
23 | CRERPYGGGGG [FUS_Y526_R521C] | 0.556 | 0.631 | 0.377 | 1.13 | 0.587 | 0.406 | 0.389 | 0.647 | 0.459 | 0.552 | 0.481 | 0.438 | 0.468 | 0.87 | 0.593 | 0.651
24 | AKNKDYMSIIR [GNE_Y197] | 0.432 | 0.585 | 0.452 | 0.677 | 0.706 | 0.553 | 0.409 | 0.473 | 0.676 | 0.851 | 0.483 | 0.468 | 0.585 | 0.9 | 0.879 | 0.774
25 | HLLRIYYDITD [MMP27_Y307_W304L] | 2.49 | 1.46 | 1.66 | 2.15 | 1.91 | 1.99 | 1.07 | 1.23 | 1.63 | 1.93 | 0.891 | 0.88 | 2.33 | 0.711 | 0.704 | 1.55
26 | NRLNDYIFSFD [RARS1_Y516] | 0.721 | 1.09 | 0.555 | 1.03 | 0.977 | 0.538 | 0.461 | 0.424 | 0.789 | 0.538 | 0.469 | 0.475 | 0.729 | 1.15 | 0.778 | 0.506
27 | YMRGMYFRMKD [PLA2G6_Y541] | 0.462 | 0.924 | 0.384 | 0.947 | 1.16 | 0.523 | 0.416 | 0.423 | 0.657 | 0.42 | 0.44 | 0.439 | 0.589 | 1.59 | 1.5 | 1.3
28 | DYTEAYNPKIK [CLK1_Y305] | 0.624 | 1.02 | 0.483 | 0.913 | 0.641 | 0.453 | 0.456 | 0.358 | 0.678 | 0.422 | 0.596 | 0.419 | 0.592 | 0.813 | 0.584 | 1.43
29 | KGKLIYLLRDS [NXPE1_Y350_G353R] | 0.428 | 0.719 | 0.516 | 0.964 | 0.692 | 0.447 | 0.49 | 0.492 | 0.666 | 0.455 | 0.599 | 0.443 | 0.599 | 2.45 | 3.18 | 1.75
30 | FLRTGYSIPFG [TGM1_Y370_V372I_YF] | 0.486 | 0.844 | 0.44 | 0.934 | 0.863 | 0.471 | 0.473 | 0.409 | 0.775 | 0.538 | 0.423 | 0.753 | 0.769 | 1.06 | 1.62 | 5.52
31 | KTVQDYLKKFF [MMP8_Y36_E38K_YF] | 0.523 | 1.07 | 0.488 | 1.05 | 0.795 | 0.371 | 0.575 | 0.563 | 0.66 | 0.473 | 0.494 | 0.494 | 0.545 | 0.649 | 0.56 | 0.42
32 | REGKIYEYNQV [ZNF665_Y162_H157R] | 0.707 | 0.799 | 1.19 | 0.788 | 0.494 | 0.929 | 1.41 | 15.9 | 1.07 | 0.716 | 1.12 | 3.19 | 0.898 | 0.84 | 0.611 | 1.56
33 | CTTIHYNCMCN [TP53_Y234_Y236C] | 0.417 | 1.06 | 0.468 | 1.08 | 0.885 | 0.712 | 0.45 | 0.541 | 0.689 | 0.591 | 0.475 | 0.426 | 0.715 | 0.775 | 0.823 | 0.508
